The results in this text go back to patent US20200123264A1 (Regeneron, published 2020).

First the molecules themselves.
T1: extracellular domain of human LEPR with an N-terminal myc-myc tag, GPI-anchored on HEK293 cells (human, UniProt P48357 22-839, GPI anchor at the C-terminus ; A GPI anchor is attached at the C end through a carboxypeptidase M derived peptide. The protein is displayed on HEK293 cells.)
T1 construct: also called HEK293/hLEPR-GPI; Mycx2-hLEPR(Ecto)-GPI
T1 sequence: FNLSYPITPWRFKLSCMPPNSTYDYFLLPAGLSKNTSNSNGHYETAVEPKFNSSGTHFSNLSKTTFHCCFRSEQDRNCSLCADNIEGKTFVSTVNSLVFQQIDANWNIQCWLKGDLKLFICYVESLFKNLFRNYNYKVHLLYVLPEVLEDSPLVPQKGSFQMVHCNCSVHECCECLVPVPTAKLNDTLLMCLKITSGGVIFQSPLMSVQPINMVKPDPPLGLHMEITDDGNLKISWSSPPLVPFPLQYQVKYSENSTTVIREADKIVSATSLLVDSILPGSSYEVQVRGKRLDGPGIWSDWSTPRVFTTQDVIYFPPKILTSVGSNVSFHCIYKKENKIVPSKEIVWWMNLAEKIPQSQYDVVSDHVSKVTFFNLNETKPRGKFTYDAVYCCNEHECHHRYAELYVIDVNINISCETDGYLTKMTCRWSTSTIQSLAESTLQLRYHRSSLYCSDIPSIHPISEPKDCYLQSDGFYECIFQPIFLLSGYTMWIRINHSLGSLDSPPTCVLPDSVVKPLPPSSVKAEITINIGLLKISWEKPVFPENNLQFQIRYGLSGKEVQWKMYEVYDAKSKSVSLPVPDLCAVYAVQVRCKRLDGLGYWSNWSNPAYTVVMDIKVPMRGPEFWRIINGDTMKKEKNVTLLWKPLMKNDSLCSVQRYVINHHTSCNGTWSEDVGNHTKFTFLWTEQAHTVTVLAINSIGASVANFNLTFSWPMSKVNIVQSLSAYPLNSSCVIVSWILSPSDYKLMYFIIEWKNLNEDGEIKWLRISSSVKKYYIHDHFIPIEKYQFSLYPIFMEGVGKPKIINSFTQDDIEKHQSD

B1: H4H18466P2 (antibody, human IgG4, V domains shown)
VH: EVQLVESGGGLVQPGGSLRLSCTASGFTFSSYGLHWVRQAPGKGLEYVSSINHNGGSKYYADSVKGRFTISRDNSKNTLFLQMGSLKTEDMAVYYCARDLFLEWLFHGFDIWGQGTMVTVSS
VL: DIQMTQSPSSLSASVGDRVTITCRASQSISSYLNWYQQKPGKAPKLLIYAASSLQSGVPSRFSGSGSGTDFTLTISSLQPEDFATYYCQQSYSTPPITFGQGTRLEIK
notes: H4H prefix: human IgG4 Fc
B2: H4H18457P2 (antibody, human IgG4, V domains shown)
VH: EVQLVESGGSVVRPGESLRLSCAASGFTFDDYGMSWVRQAPGKGLEWVSGISWNGGITVYADSVKGRFTVSRDNAKNSLYLQMNSLRAEDTALYHCARARYGGADYWGQGTLVTVSS
VL: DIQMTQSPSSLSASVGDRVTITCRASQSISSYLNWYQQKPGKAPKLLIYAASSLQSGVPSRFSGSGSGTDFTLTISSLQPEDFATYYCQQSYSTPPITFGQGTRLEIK
notes: H4H prefix: human IgG4 Fc
B3: H4H18440P2 (antibody, human IgG4, V domains shown)
VH: QVQLVESGGGMVKPGGSLRLSCAASGFTFSDYYMSWIRQAPGKGLEWISHISITGSTIYYADSVKGRFTISRDNAKNSLYLEMNRLRDEDTAVYYCTRDEPDIVLVRYGMDVWGQGTTVTVSS
VL: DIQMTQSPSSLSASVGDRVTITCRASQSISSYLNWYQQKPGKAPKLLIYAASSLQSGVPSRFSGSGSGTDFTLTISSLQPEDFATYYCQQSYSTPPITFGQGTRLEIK
notes: H4H prefix: human IgG4 Fc
B4: H4H18439P2 (antibody, human IgG4, V domains shown)
VH: QLQLQESGPGLVKPSETLSLTCIVSGGDITSSSYYWNWIRQPPGKGLEWIGNIYYSGSTNYNPSLKSRVTISIDTSKSQFSLKLRSVTAADTAVYYCARLLRYFDWSKGYLDYWGQGTLVTVSS
VL: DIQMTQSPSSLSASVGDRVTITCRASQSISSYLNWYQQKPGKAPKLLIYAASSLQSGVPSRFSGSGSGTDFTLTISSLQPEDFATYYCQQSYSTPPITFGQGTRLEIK
notes: H4H prefix: human IgG4 Fc
B5: H4H18462P2 (antibody, human IgG4, V domains shown)
VH: EVQLVESGGDLVQPGRSLRLSCAASGFTFSSFAMSWVRQAPGRGLEWVSSLSDSGDNTYYADSVKGRFTISRDNSKNTLYLQMNNLRAEDTAVYYCAKDLFSGWLFHGFDVWGQGTMVTVSS
VL: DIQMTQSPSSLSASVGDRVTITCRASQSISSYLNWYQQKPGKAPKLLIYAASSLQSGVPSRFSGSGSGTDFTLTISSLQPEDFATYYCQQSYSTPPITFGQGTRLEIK
notes: H4H prefix: human IgG4 Fc
B6: H4H18464P2 (antibody, human IgG4, V domains shown)
VH: QVQLVQSGPEVKKPGASVKVSCKGSGYTFSWYGISWIRQAPGHGLEWMGWISASSGNTRFAQKVQGRLTMTTDTSTSTAYMELRSLRSDDTAVYYCARTGTRPFDYWGQGTLVTVSS
VL: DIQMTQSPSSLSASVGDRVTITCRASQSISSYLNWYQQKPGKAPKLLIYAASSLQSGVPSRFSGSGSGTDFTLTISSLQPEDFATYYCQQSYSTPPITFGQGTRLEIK
notes: H4H prefix: human IgG4 Fc

The target in the first experiment is T1, extracellular domain of human LEPR with …. Put plainly: FACS, 10 nM Ab, HEK293/hLEPR-GPI cells, no added Leptin. The protocol: (§1) For the FACS analysis, HEK293 parental cells and HEK293/hLEPR-GPI cells were dissociated and plated onto 96-well v-bottom plates at 5×10⁵ cells/well in PBS containing 2% FBS (FACS buffer). […] Cells were subsequently fixed using BD CytoFix™ (Becton Dickinson, #554655), filtered, and analyzed on a HyperCyt Flow Cytometer (Beckman Coulter). Unstained and secondary antibody alone controls were also tested for all cell lines. The results were analyzed using ForeCyt (IntelliCyt) and FlowJo version 10 softwares to determine the geometric means of fluorescence for viable cells. The geometric mean of fluorescence for each sample was then normalized to the geometric mean of unstained cells to obtain relative binding per condition referred to as “binding ratios”, and these binding ratios were recorded in Table 14 for each antibody tested.
In the case of B1, the “Binding Ratio (normalized to unstained)” value stood at 824 fold.
In the case of B2, the “Binding Ratio (normalized to unstained)” value stood at 3190 fold.
For the molecule B3, the “Binding Ratio (normalized to unstained)” value came out at 1640 fold.
Still for that read-out and setting: in the case of B4 it was 1530 fold.
Still for that read-out and setting: in the case of B5 it was 1170 fold.
Regarding B6, the “Binding Ratio (normalized to unstained)” value came to 2320 fold.

For the next experiment the target is unchanged. Put plainly: FACS, 10 nM Ab, HEK293/hLEPR-GPI cells, 1 µM Leptin. The protocol: as §1
In the case of B1, the “Binding Ratio (normalized to unstained)” value was 398 fold.
With B2, the “Binding Ratio (normalized to unstained)” value was determined as 3110 fold.
In the case of B3, the “Binding Ratio (normalized to unstained)” value came to 2560 fold.
For the molecule B4, the “Binding Ratio (normalized to unstained)” value was 2480 fold.
On the same count and under the same terms, in the case of B5 it was 759 fold; in that of B6, 3590 fold.
